In test [1] the target is T1, human prolactin receptor (PRLR) expressed on cells (human) (UniProt P16471).
T1 sequence: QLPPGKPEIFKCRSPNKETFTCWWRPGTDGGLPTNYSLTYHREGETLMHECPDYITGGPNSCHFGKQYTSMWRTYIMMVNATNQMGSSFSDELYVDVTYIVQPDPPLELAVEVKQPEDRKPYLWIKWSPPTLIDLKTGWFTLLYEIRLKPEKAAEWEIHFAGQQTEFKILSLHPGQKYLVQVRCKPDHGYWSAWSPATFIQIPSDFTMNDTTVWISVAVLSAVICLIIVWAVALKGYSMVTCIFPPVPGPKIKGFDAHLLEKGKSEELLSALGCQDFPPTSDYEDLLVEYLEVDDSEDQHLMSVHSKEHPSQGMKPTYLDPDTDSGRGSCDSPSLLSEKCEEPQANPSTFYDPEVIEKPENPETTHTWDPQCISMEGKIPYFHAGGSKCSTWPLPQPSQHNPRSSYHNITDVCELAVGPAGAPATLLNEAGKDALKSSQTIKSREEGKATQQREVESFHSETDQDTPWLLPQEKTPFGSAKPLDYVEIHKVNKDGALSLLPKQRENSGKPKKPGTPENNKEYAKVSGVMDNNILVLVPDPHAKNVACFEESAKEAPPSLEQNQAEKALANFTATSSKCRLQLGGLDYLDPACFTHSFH
Description: flow cytometry on CHO-K1 cells expressing human PRLR (clone 1G5).

The target of test [2] is T1, human prolactin receptor (PRLR) expressed on cells (human). The experiment in a line: cell-based or functional assay.

“mAb 1167, control murine anti-PRLR monoclonal antibody (R&D Systems, catalog # MAB 1167)” showed an MFI in test [1] of 33.8 MFI.

B1: XHA.06.983 (antibody, from another filing, V domains shown)
VH: DVQLVESGGGLVQPGGSRKLSCAASGFAFSSFGMQWVRQAPEKGLEWVAYISSGSSTIYYADTVKGRFTISRDNPKNTLFLQMTSLRSEDTAMYYCVRSGRDYWGQGTSVTVSS
VL: SIVMTQTPKFLLVSAGDRVTITCKASQGVSNDVAWFQQKPGQSPKLLIYSASTRYTGVPDRLTGSGYGTDFTFTINTVQAEDLAVYFCQQDYTSPTFGGGTKLEIKR
In test [2], B1 registered a pERK1/2 inhibition IC50 of 0.11.

For the origin of these results see patent US20150175705A1.
